Experimental findings from paper PMC11272584 (Nature Metabolism, 2024) are described below.

To fix the notation:
T1: GIPR A185V (Homo sapiens, UniProt P48546, A185V)
T1 construct: host or cells: HEK293
T1 sequence (P48546 22-466 A185V): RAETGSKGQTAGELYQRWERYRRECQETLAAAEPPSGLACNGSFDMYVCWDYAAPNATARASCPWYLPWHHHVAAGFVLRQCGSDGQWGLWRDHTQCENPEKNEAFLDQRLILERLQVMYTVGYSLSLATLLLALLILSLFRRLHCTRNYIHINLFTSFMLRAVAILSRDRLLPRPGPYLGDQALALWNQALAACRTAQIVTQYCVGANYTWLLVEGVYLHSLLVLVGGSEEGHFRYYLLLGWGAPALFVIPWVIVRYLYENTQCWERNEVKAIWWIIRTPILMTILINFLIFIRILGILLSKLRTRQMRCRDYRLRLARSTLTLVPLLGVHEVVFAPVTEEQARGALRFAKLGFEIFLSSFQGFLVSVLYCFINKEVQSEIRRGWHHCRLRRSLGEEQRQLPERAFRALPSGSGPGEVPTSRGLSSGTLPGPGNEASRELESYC

T2: GIPR R183Q (Homo sapiens, UniProt P48546, R183Q)
T2 construct: host or cells: HEK293
T2 sequence (P48546 22-466 R183Q): T1 sequence (P48546 22-466 A185V) with R162Q, V164A

T3: GIPR R164W (Homo sapiens, UniProt P48546, R164W)
T3 construct: host or cells: HEK293
T3 sequence (P48546 22-466 R164W): T1 sequence (P48546 22-466 A185V) with R143W, V164A

T4: GIPR H166Y (Homo sapiens, UniProt P48546, H166Y)
T4 construct: host or cells: HEK293
T4 sequence (P48546 22-466 H166Y): T1 sequence (P48546 22-466 A185V) with H145Y, V164A

T5: GIPR T168A (Homo sapiens, UniProt P48546, T168A)
T5 construct: host or cells: HEK293
T5 sequence (P48546 22-466 T168A): T1 sequence (P48546 22-466 A185V) with T147A, V164A

T6: GIPR A150T (Homo sapiens, UniProt P48546, A150T)
T6 construct: host or cells: HEK293
T6 sequence (P48546 22-466 A150T): T1 sequence (P48546 22-466 A185V) with A129T, V164A

T7: GIPR R164Q (Homo sapiens, UniProt P48546, R164Q)
T7 construct: host or cells: HEK293
T7 sequence (P48546 22-466 R164Q): T1 sequence (P48546 22-466 A185V) with R143Q, V164A

B1: A185V (protein)
chain: T1 sequence (P48546 22-466 A185V)
B2: R183Q (protein)
chain: T1 sequence (P48546 22-466 A185V) with R162Q, V164A
B3: A150T (protein)
chain: T1 sequence (P48546 22-466 A185V) with A129T, V164A
B4: H166Y (protein)
chain: T1 sequence (P48546 22-466 A185V) with H145Y, V164A
B5: R164Q (protein)
chain: T1 sequence (P48546 22-466 A185V) with R143Q, V164A
B6: T168A (protein)
chain: T1 sequence (P48546 22-466 A185V) with T147A, V164A
B7: R164W (protein)
chain: T1 sequence (P48546 22-466 A185V) with R143W, V164A

Positions count from the first letter of the chain named. Numbers in names are those of the source.

One assay deals with T1, GIPR A185V. The experiment in a line: cAMP accumulation. Type of assay: cell-based.
Conditions: not given
With B1, the “Efficacy at 100pmol (cAMP)” value was 0.2646.

The target of the next assay is T2, GIPR R183Q. The experiment in a line: cAMP accumulation.
Conditions: not given
Type of assay: cell-based.
In the case of B2, the “Efficacy at 100pmol (cAMP)” value is on record as 0.

In a further assay the test system is GIPR variants (groups). The experiment in a line: cAMP accumulation. The conditions noted are these: cAMP part of the in vitro group. Type of assay: cell-based, human.
As for B3, the “In vitro groups (cAMP)” value was “LoF_camp”.

For B1, the “In vitro groups (cAMP)” value is “LoF_camp”.

Consider B4, for which the “In vitro groups (cAMP)” value is on record as “WT-like_camp”.

Turning to B5, the “In vitro groups (cAMP)” value is recorded as “WT-like_camp”.

B2: the “In vitro groups (cAMP)” value is recorded as “LoF_camp”.

Regarding B6, the “In vitro groups (cAMP)” value is on record as “LoF_camp”.

For B7, the “In vitro groups (cAMP)” value is recorded as “LoF_camp”.

The same assay, now with this note: cAMP production compared with WT.
For the molecule B3, the percentage_camp is on record as less than 50% cAMP.

In turn, B1 yielded a percentage_camp of less than 50% cAMP.

For B4, the percentage_camp is recorded as greater than 50% cAMP.

B5 returned a percentage_camp greater than 50% cAMP.

Regarding B2, the percentage_camp is listed as less than 50% cAMP.

As for B6, the percentage_camp is recorded as less than 50% cAMP.

The molecule B7 showed a percentage_camp of less than 50% cAMP.

Still in this assay, the particulars now being: in vitro cAMP production per GIPR variant.
B3: the “Beta, cAMP” value worked out at 0.1631.

With B1, the “Beta, cAMP” value is 0.2646.

Turning to B4, the “Beta, cAMP” value stood at 0.9566.

Take B5: the “Beta, cAMP” value turned out to be 1.15.

In the case of B2, the “Beta, cAMP” value is given as 0.

In the case of B6, the “Beta, cAMP” value was found to be 0.2182.

As for B7, the “Beta, cAMP” value amounted to 0.003189.

A further assay concerns the target T3, GIPR R164W. The experiment in a line: cAMP accumulation. Type of assay: cell-based.
Conditions: not given
Regarding B7, the “Efficacy at 100pmol (cAMP)” value is on record as 0.003189.

The target in another assay is T4, GIPR H166Y. The experiment in a line: cAMP accumulation. The class given is cell-based.
Conditions: not given
Take B4: the “Efficacy at 100pmol (cAMP)” value was found to be 0.9566.

Another assay deals with T5, GIPR T168A. The experiment in a line: cAMP accumulation. Type of assay: cell-based.
Conditions: not given
With B6, the “Efficacy at 100pmol (cAMP)” value worked out at 0.2182.

For the next assay, the target named is T6, GIPR A150T. The experiment in a line: cAMP accumulation. Type of assay: cell-based.
Conditions: not given
For the molecule B3, the “Efficacy at 100pmol (cAMP)” value amounted to 0.1631.

For another assay, the system named is GIPR variants (groups). The assay is described as follows: β-arrestin 2 recruitment (BRET).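 Further: BRET readout of β-arrestin 2 recruitment in transiently transfected HEK293 cells expressing WT GIPR or a GIPR variant plus GPCR kinase 2, Rluc8 donor and citrine acceptor.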 The conditions noted are these: arr part of the in vitro group.
B3: the “In vitro groups (β-arrestin)” value is recorded as “WT-like_arr”.

Take B1: the “In vitro groups (β-arrestin)” value is “WT-like_arr”.

As to B4, the “In vitro groups (β-arrestin)” value is “LoF_arr”.

As for B5, the “In vitro groups (β-arrestin)” value is listed as “LoF_arr”.

For B2, the “In vitro groups (β-arrestin)” value was “LoF_arr”.

Regarding B6, the “In vitro groups (β-arrestin)” value is “LoF_arr”.

For the molecule B7, the “In vitro groups (β-arrestin)” value is “LoF_arr”.

The assay is the same for the next values; noted with them: in vitro β-arrestin recruitment per GIPR variant.
As to B3, the “Beta, Barr” value is listed as 0.8173.

In the case of B1, the “Beta, Barr” value amounted to 0.8905.

B4: the “Beta, Barr” value is recorded as 0.3616.

In the case of B5, the “Beta, Barr” value amounted to 0.3053.

On to B2, for which the “Beta, Barr” value is reported as 0.03853.

For B6, the “Beta, Barr” value is 0.2206.

For the molecule B7, the “Beta, Barr” value is reported as 0.

In another assay the target is T7, GIPR R164Q. The experiment in a line: cAMP accumulation. The class given is cell-based.
Conditions: not given
Regarding B5, the “Efficacy at 100pmol (cAMP)” value is 1.15.
